Data published in US20100041597A1, “PEPTIDES TARGETED TO PROTEIN KINASE C ISOFORMS AND USES THEREOF” (priority 2005, published 2010).

Experiments:
[1] = biological target: PKC-α (Homo sapiens, UniProt P17252); assay: Competitive binding assay using cell extracts (Western blot); set-up: key to Affinity for PKC isoform α: —: no detectable affinity; Low to very low affinity at 10X or 20X or both PRE concentrations in at least one cell line in the cell extract assay; Low affinity in purified isoform assay.; Moderate affinity at 10X or 20X or both PRE concentrations in at least one cell line in the cell extract assay.; High affinity at 10X or 20X or both PRE concentrations in at least one cell line in the cell extract assay; High affinity in purified isoform assay; details: for Affinity for PKC isoform α: Cell extract, PRE at 10X, 20X antibody concentration, Table 20
Protocol: Binding efficiency and specificity of the peptides PRE 2, 3, 4, 5, 6, 7, 8, 9, 10, 11, 12 and 13 (see Table 3) was also tested using cytoplasmic extracts from different cell lines expressing appropriate PKC isoforms as described for Example 1. Briefly, the protein cytoplasmic extracts were separated by electrophoresis and transferred onto nitrocellulose membranes by standard Western blotting procedures. The bands on the Western blots were detected with matching primary antibodies and alkaline phosphatase conjugated secondary antibody. The bands were then scanned and the relative density measurements obtained.
This procedure to assess the binding characteristics of the PREs is based on competition binding of the PRE with the primary anti-isoform PKC specific antibodies. The lower the measured band density, the greater the binding of the PRE to the PKC isoform. The PREs were added at 10 and 20 times (10×, 20×) the primary antibody concentration, according to classical competition between antigenic peptide and primary antibody. The following cell lines (obtained from the ATCC) were used: H661—NCI human lung carcinoma NSCLC; MDAMB231—human highly invasive breast cancer cell line from pleural effusion; LS180—human colon adenocarcinoma; LnCAP—human prostate adenocarcinoma; CCD16Lu—human lung fibroblasts; Du145—human prostate carcinoma brain metastasis, and T24—human bladder carcinoma.
In these cases, the 20× band density figures relative to control and 10× values were reliable.

[2] = biological target: PKC-βII (Homo sapiens, UniProt P05771); assay: ELISA-based competitive binding assay with purified PKC isoform; set-up: key to Affinity for PKC isoform βII: —: no detectable affinity; Low to very low affinity at 10X or 20X or both PRE concentrations in at least one cell line in the cell extract assay; Low affinity in purified isoform assay.; Moderate affinity at 10X or 20X or both PRE concentrations in at least one cell line in the cell extract assay.; High affinity at 10X or 20X or both PRE concentrations in at least one cell line in the cell extract assay; High affinity in purified isoform assay; details: for inhibition at 50 µM / inhibition at 100 µM / inhibition at 200 µM / calculated binding capacity (100-% n) after subtraction of the DMSO apparent binding capacity: purified PKC-βII; for inhibition at 50 µM / inhibition at 100 µM / inhibition at 200 µM: read-out: calculated binding capacity (100-% n) after subtraction of the DMSO apparent binding capacity; for Affinity for PKC isoform βII: Purified isoform, Table 20
Sequence of PKC-βII (P05771 1-673 isoform P05771-2): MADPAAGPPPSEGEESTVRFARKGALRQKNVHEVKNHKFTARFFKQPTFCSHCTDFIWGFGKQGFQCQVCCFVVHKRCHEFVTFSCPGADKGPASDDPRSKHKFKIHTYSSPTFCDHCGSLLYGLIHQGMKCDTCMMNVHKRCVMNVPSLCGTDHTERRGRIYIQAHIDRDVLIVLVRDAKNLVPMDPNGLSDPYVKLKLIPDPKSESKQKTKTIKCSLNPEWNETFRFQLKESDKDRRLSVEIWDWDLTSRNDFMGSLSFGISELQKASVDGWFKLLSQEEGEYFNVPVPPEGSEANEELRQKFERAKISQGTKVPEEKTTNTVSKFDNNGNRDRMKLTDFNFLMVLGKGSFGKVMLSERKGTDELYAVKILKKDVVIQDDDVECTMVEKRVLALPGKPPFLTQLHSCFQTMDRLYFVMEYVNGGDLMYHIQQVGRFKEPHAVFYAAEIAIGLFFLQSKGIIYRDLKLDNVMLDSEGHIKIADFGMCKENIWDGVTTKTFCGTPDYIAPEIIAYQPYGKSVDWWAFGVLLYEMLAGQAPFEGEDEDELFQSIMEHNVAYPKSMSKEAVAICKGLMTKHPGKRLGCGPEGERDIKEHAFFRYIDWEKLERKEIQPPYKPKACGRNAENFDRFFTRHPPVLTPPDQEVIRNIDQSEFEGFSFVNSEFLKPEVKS
Protocol: Peptides PRE 1, 2, 3, 4, 5, 6, 7, 8, 9, 10, 11, 12 and 13 (see Table 3) were tested for their ability to interfere with binding of PKC isoform-specific antibodies to their target PKC isoforms using a competitive binding assay and purified PKC isoforms.
Procedure: Competitive binding was assessed using a 96 well plate ELISA-based assay as described below.
Greiner 96 well ELISA plates were coated with the appropriate PKC isoform diluted in PBSN (PBS with Calcium/Magnesium+0.05% Sodium azide w/w). 50 μL/well at 250 ng/mL was used. Control wells contained PBSN only. Plates were incubated overnight at 4° C.
The plates were washed 3 times with 200 μL of dH2O per well, then 100 μL of blocking solution was added per well and the plate incubated for 1 h at 37° C. The washing steps with dH2O were repeated and 50 μL of the appropriate PRE solution (PRE stock solution [20 mM in DMSO] diluted in PBSN) was added and the plate incubated for 1 h at room temperature.
After incubation, 5 μL of 1.1:400 anti-PKC (isoform specific antibody) was added per well (to provide a final concentration of 1:4000). For PKC-epsilon, 1.1:800 dilution was used and for PKC-zeta a 1.1:100 dilution was used due to high and low binding affinity, respectively. The plates were then incubated 1 h at room temperature, followed by washing with dH2O as described above.
50 μL of 1:1000 dilution of Alkaline Phosphatase (AP) conjugated antibody (anti-rabbit for all except zeta, which was anti-goat) was then added and the plate incubated for 1 h at room temperature. Washing with dH2O was then repeated. Finally, 100 μL of pNPP solution in pNPP buffer (2 mM MgCl2, 100 mM Sodium bicarbonate in water, pH 9.8) was added to all wells and incubated for 8 minutes for α, βI, βII ε, and ζ, or for 15-20 mins for […] (until sufficient coloration is observed). The reaction was stopped by addition of Stop solution (2N NaOH) and the absorbance at 405 nm was read on a Galaxy Plate reader.
Controls were PKC without PRE; blank controls, and controls containing the final concentrations of DMSO used for solubilizing the PREs. The non-specific binding capacity related to DMSO was also measured.
The antibodies used were as follows: anti-PKC α (Cat. No. SC-208); anti-PKC βI (Cat. No. SC-209); anti-PKC βII (Cat. No. SC-210); anti-PKC δ (Cat. No. SC-213); anti-PKC ε (Cat. No. SC-214); anti-PKC ζ (Cat. No. SC-216-G) (all from Santa Cruz Biotechnology, Inc.). The AP-conjugated antibodies were obtained from Jackson Immuno Research Laboratories (West Grove, Pa.).
Calculations: The OD values measured at 405 nm represent the free PKC coated per well.
OD405 PKC alone−Blank OD405 of each sample=OD405 coated isoform
(OD405 of sample X/OD405 coated isoform)×100=% n that represents the percentage of X binding compared to control.
100-% n measures the relative binding capacity of X towards the tested isoform.
The apparent binding capacity of the DMSO samples was then subtracted from X binding capacity.
All measurements were made in triplicate and the values in the table represent the averaged calculated binding capacity values after subtraction of the DMSO apparent binding capacity (averaged from 12 values, respectively 10.80, 11.20 and 16.40 corresponding to the concentrations of DMSO used to dilute the […] at 200, 100 and 50 μM respectively). The results allow for quantitative comparison of the binding capacity of each PRE towards an individual isoform within each table, but not among isoforms due to differences in sensitivity of the specific antibodies toward the secondary antibody. This applies particularly to PKC-delta. As noted above, the colour development duration was increased 2-3 times and, as a result, the OD405 measurements may be overestimated for this isoform.

| Affinity for PKC isoform α [1] | inhibition at 50 µM ([2]; PRE 50 μM) [%] | inhibition at 100 µM ([2]; PRE 100 μM) [%] | inhibition at 200 µM ([2]; PRE 200 μM) [%] | Affinity for PKC isoform βII [2] | calculated binding capacity (100-% n) after subtraction of the DMSO apparent binding capacity ([2]; PRE 50 μM) | calculated binding capacity (100-% n) after subtraction of the DMSO apparent binding capacity ([2]; PRE 100 μM) | calculated binding capacity (100-% n) after subtraction of the DMSO apparent binding capacity ([2]; PRE 200 μM) | affinity for PKC-α ([1]; cell extracts) | targeting of PKC-βII ([2]; purified isoform, Tables 14-19) | Substance |
| --- | --- | --- | --- | --- | --- | --- | --- | --- | --- | --- |
| H/L |  |  |  | L |  |  |  |  |  | Ac-ISIGILNQADK-NH2 [PRE 10] |
| — |  |  |  | — | 4.55 |  |  |  |  | Ac-KDAQNLI-NH2 [PRE 12] |
| M/H |  |  |  | — |  |  |  |  |  | Ac-RDAQNLI-NH2 [PRE 13] |
| H/L |  |  |  | — | 7.14 | 11.04 | 6.40 |  |  | Ac-RDAQNLIGISI-NH2 [PRE 11] |
| M/L |  |  |  | H | 8.14 | 0.3 |  |  | targeted most strongly | Ac-isigilgnadk-NH2 [PRE 9] |
| M/L |  |  |  | — | 1.11 |  |  |  |  | ILEDKGGDAQNLIGISI [PRE 8] |

Further lines, the substance ahead of its results:

| Substance | Affinity for PKC isoform α [1] | inhibition at 50 µM ([2]; PRE 50 μM) [%] | inhibition at 100 µM ([2]; PRE 100 μM) [%] | inhibition at 200 µM ([2]; PRE 200 μM) [%] | Affinity for PKC isoform βII [2] | calculated binding capacity (100-% n) after subtraction of the DMSO apparent binding capacity ([2]; PRE 50 μM) | calculated binding capacity (100-% n) after subtraction of the DMSO apparent binding capacity ([2]; PRE 100 μM) | calculated binding capacity (100-% n) after subtraction of the DMSO apparent binding capacity ([2]; PRE 200 μM) | affinity for PKC-α ([1]; cell extracts) | targeting of PKC-βII ([2]; purified isoform, Tables 14-19) |
| --- | --- | --- | --- | --- | --- | --- | --- | --- | --- | --- |
| Ac-AKGIQEVKGGDAQNLIGISI-NH2 [PRE 3] | H | 0 | 0 | 3.72 | — |  |  |  |  |  |
| Ac-AKGIQEVKGGKDAQNLIGISI-NH2 [PRE 5] | M | 0 | 0 | 0 | — |  |  |  |  |  |
| Ac-ISIGILQNADK-NH2 [PRE 7] | L |  |  |  | — | 5.42 | 11.07 | 2.59 |  |  |
| Ac-KDANQLIGISI-NH2 [PRE 6] | H/L |  |  |  | — |  |  |  |  |  |
| Ac-KDAQNLIGISI-NH2 [PRE 4, Ac-KDAQNLIGISI-NH2] | H | 2.69 | 13.5 | 1.18 | L |  |  |  | strong affinity for PKC-α |  |
| RRKKGGKDFVVKR [PRE 1] | H |  |  |  | — |  |  |  |  |  |
